From article PMC8764033, “Single-molecule analysis of specificity and multivalency in binding of short linear substrate motifs to the APC/C” (Nature Communications, 2022)

Molecular target: T1, APC/C^apo (Saccharomyces cerevisiae, UniProt P38042+P53068)
T1 construct: APC/C was purified from yeast cells; made in house; host or cells: S. cerevisiae W303 strain NHY13 (Cdc16-TAP, Apc1-GFP, cdh1 deleted)
Experiment: SMOR assay, yeast APC/C^apo (no activator)
Format: binding
Settings: Supplementary Table 1, single movie
Description: Yeast strains were derivatives of W303 and are listed in Supplementary Table 2. For APC/C purification, we used a strain carrying Cdc16-TAP and lacking Cdh1 (DOM1126); in most experiments, the strain also carried Apc1-GFP (NHY13). Yeast were grown in YPD media to OD600 = 0.8, collected and flash-frozen. Cells were lysed by bead beating in lysis buffer A (50 mM HEPES pH 7.5, 150 mM KCl, 10% glycerol, 0.2% Triton X-100, 63 µM B-glycerophosphate, 48 µM sodium fluoride, 1 µg ml^−1 pepstatin A, 1 µg ml^−1 leupeptin, 1 µg ml^−1 aprotinin, 1 mM PMSF, 1 mM DTT, 0.5 mM EDTA) and APC/C was purified using magnetic IgG beads. The beads were washed using wash buffer A (20 mM HEPES pH 7.5, 150 mM KCl, 10% Glycerol, 0.05% Triton X-100). After incubation with purified Cdh1 or Cdc20, the APC/C was cleaved off the beads with TEV protease in wash buffer A with 0.05% Tween-20 (for single-molecule studies) or 0.05% Triton X-100 (for ensemble assays such as ubiquitylation) and used immediately. […]
Microscopy was performed with a Nikon Eclipse TE2000-E with Perfect Focus with a 100 × 1.49na oil, Apo TIRF DIC N2, 0.13-0.2, WD0.12 objective. Movies were recorded using the Andor iXon DU-897E-CSO. […]

B1: Hsl1^Halo KEN & D: Hsl1 fragment (amino acids 667–872) with C-terminal HaloTag, JF549-labeled (protein)
chain: QNSASKRSLYSLQSISKRSLNLNDLLVFDDPLPSKKPASENVNKSEPHSLESDSDFEILCDQILFGNALDRILEEEEDNEKERDTQRQRQNDTKSSADTFTISGVSTNKENEGPEYPTKIEKNQFNMSYKPSENMSGLSSFPIFEKENTLSSSYLEEQKPKRAALSDITNSFNKMNKQEGMRIEKKIQREQLQKKNDRPSPLKPIQ
modifications: JF549 or JF646 dye covalently bound to the HaloTag; left off: HaloTag, C-terminal, kept | TAP, C-terminal, cleaved
notes: Hsl1 fragment (amino acids 667–872) with C-terminal HaloTag, JF549-labeled
  Dwell Time (in words): no binding
